Test results published in the nanobody polyreactivity screen of Harvey et al. (2022).

Experiment: yeast display, Sf9 membrane polyspecificity reagent, FACS + sequencing; frameworks hold sequencing errors
In short: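 Synthetic nanobody libraries on Saccharomyces cerevisiae BJ5465 were galactose-induced for 36–48 hours, stained 1 hour at 4 °C with 10% biotinylated, detergent-solubilized Sf9 membrane reagent and enriched on streptavidin microbeads. FACS then separated cells into low and high (top ~1%) gates by anti-HA (expression) and streptavidin (reagent binding) fluorescence. Genes were colony-PCR amplified, MiSeq 2 × 250 sequenced and CDR-length filtered. A clone's polyreactivity label is that of its gate of origin.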

Row | Sequence | polyreactivity (PSR sort gate)
1 | QVQLVESGGGLVQAGGSLRLSCAASGFTFGRNAMGWYRQAPGKERELVASIDWSGGSTYYADSVKGRFTISRDNAKNTVYLQMNSLIPEDTAVDYCAVGPNSVGNRSYGFDYWGQGTQVTVSS | low polyreactivity
2 | QVQLVESGGGLVQAGGSLRLSCAASGFTFGRNAMGWYRQAPGTERELVARITTGGSTNYADSVKGRFTISRDNAKYTVYLQLNSLKPEDTAVYYCAATYVSLALFWTYGYWGQGTQVTVSS | low polyreactivity
3 | QVQLVESGGGLVQAGGSLRLSCAASGFTFGRYAMGWYRQAPGKERELVAAITYTDGSTYYADSVKGRFTISRDNAKNTVYLQMNSLKPEDTAVYYCAATTLSFEGGKYWSKYDYWGQGTQVTVSS | low polyreactivity
4 | QVQLVESGGGLVQAGGSLRLSCAASGFTFGRYAMGWYRQAPGKVRELVAGITSGGSTYYADSVKGRFTISRDNAKKTVYLQMNSLKPEDTAVYYGAKASAYGLANDYDYWGQGTQVTVSS | low polyreactivity
5 | QVQLVESGGGLVQAGGSLRLSCAASGFTFGRYAMGWYRQATGKERELVAAITWSGGSTHYADSVKGRFTISRDNAKNTVYLQMNSLKPEDTAVYYCAVRVIYWSGSQVSVEYYYWGQGTQVTVSS | low polyreactivity
6 | QVQLVESGGGLVQAGGSLRLSCAASGFTFGRYDMGWYRQAPGKERELVAAISSGGNTYYADSVKGRFTISRDNAKNTVYLQMNSLKPEDTAVNYCNARTSYYSRFDYWGQGTQVTVSS | high polyreactivity
7 | QVQLVESGGGLVQAGGSLRLSCAASGFTFGSNAMGWYRQAPGKERELVAAINYSGVRTYYADSVKGRFTISRDNAKNTVYLQMNSLKPEDTAVYYCAKKRSKRISFDYWGQGTQVTVSS | high polyreactivity
8 | QVQLVESGGGLVQAGGSLRLSCAASGFTFGSNDMGWYRQAPGKERELVAAINYSGVRTYYADSVKGRFTISRDNAKNTVYLQMNSLKPEDTAVYYCAKKRSKPISFDYWVQGTQVTVSS | high polyreactivity
9 | QVQLVESGGGLVQAGGSLRLSCAASGFTFGSNVMGWYRQAPGKERELVATIRRGGSTNYADSVKGRFTISRDNAKNTVYLQMNSLKPEDTAVYYCATGYAVYLSRRDYWGQGTQVTVSS | high polyreactivity
10 | QVQLVESGGGLVQAGGSLRLSCAASGFTFGSYAMGWYRQAPGKERELVAAISRGGTTYYADSVKGRFTVSRDNAKNTVYLQMNSLKPEDTAVYYCATALIVRGPSRYEYWGQGTQVTVSS | high polyreactivity
11 | QVQLVESGGGLVQAGGSLRLSCAASGFTFGSYAMGWYRQAPGTERELVADISRRGGRTYYADSVKGRFTISRDNAKNTVYLQMNSLKPEDTAVYYCNAVSYVYFYSSSYDYWGQGTQVTVSS | high polyreactivity
12 | QVQLVESGGGLVQAGGSLRLSCAASGFTFGTNAMGWDRQAPGKERELVAAISGSGGSTYYADSVKGRFTISRDNAMNTVYLQMNSLKPEDTAVYYCNKGRPRKVYSEGFGYWGQGTQVTVSS | high polyreactivity
13 | QVQLVESGGGLVQAGGSLRLSCAASGFTFGVYAMGWYRQAPGKERELVAAISTTVGSTYYADSVKGRFTISRDNAKNTVYLQMNSLKPEDSAVYYCAAEYTGYINYYIYEYWGQGTQVTVSS | low polyreactivity
14 | QVQLVESGGGLVQAGGSLRLSCAASGFTFGVYTMGWYRQAPGKERELVAAITSGGSTHYADSVKGRFTISRDNAKNTVYLQMNSLKPEDTAVYYCAARVRPRPQRIYGYWGQGTQVTVSS | high polyreactivity
15 | QVQLVESGGGLVQAGGSLRLSCAASGFTFGWYAMGWYRQAPGKDWEFVAAISRSGGSTYYADSVKGRFTISRDNAKNTVYLQMNSLKPEDTAVYYCAAYIIGDTHAEYDYWGQGTQVTVSS | high polyreactivity
16 | QVQLVESGGGLVQAGGSLRLSCAASGFTFGWYAMGWYRQAPGKERELVAAIDESGGTTYYADSVKGRFTISRDNAKNTVYLQMNSLKPEDTAVYYCAADKKTPYEDDYWGQGTQVTVSS | low polyreactivity
17 | QVQLVESGGGLVQAGGSLRLSCAASGFTFGWYDMGWYRKATGKERELVASISWSGSSTYYADSVKGRFTISRDNAKNTVYLQMNSLKPEDTAVYYCATPYWRRYDYWGQGTQVTVSS | high polyreactivity
18 | QVQLVESGGGLVQAGGSLRLSCAASGFTFGYNAMGWYRQAPGKEREFVAAITKSGDSTYYADSVKGRFTISRDNAKNSVYLQMNSLKPEDTAVYYCAAQYRQRRHDYWGQGTQVTVSS | high polyreactivity
19 | QVQLVESGGGLVQAGGSLRLSCAASGFTFGYYAMGCYRQAPGKERELVAAISWSGGSTYYADSVKGRFTISRDNAKNTVYLQMNSLKPEDSAVYYCAAQSYLGRTWLDYWGQGTQVTVSS | high polyreactivity
20 | QVQLVESGGGLVQAGGSLRLSCAASGFTFGYYAMGWYRQAPGKERELVAAINYSGGSTYYADSVKGRFTISRDNEKNTVYLQMNSLKPEDTAVYYCAAAVLRTYVPDLYDYWGQGTQVTVSS | high polyreactivity
21 | QVQLVESGGGLVQAGGSLRLSCAASGFTFGYYAMGWYRQAPGKERELVARISDGGSTNYADSVKGRFTISRDNAKNTVYLQMNSLKQEDTAVYYCAADDTRGREEYDYWGQGTQVTVSS | high polyreactivity
22 | QVQLVESGGGLVQAGGSLRLSCAASGFTFGYYAMGWYRQAPGKERELVASISSRGGSTNYADSVKGRFTISRDNAKNTVYLQMNSLKPEDTAVYYCNADYYYPLRSNKYYYWGQGTQVTVSS | high polyreactivity

Row | Sequence | polyreactivity (PSR sort gate)
23 | QVQLVESGGGLVQAGGSLRLSCAASGFTFGYYAMGWYRQAPGKERELVATIDRGGGTSYADSVKGRFTISRDNAKNTVYLQMNSLKPEDTAVYYCNRAGYGAKARRYRSYWGQGTQVTVSS | high polyreactivity
24 | QVQLVESGGGLVQAGGSLRLSCAASGFTFGYYVMGWYRQEPGKERELVAAITVSGASTYYADSVKGRFTISRDNAKNTVYLQMNSLKPEDTAVYYCAKRGYFPALRQSYYYWGQGTQVTVSS | high polyreactivity
25 | QVQLVESGGGLVQAGGSLRLSCAASGFTFHDYAMGWYRPAPGKERELVAAITKTGGRTYYADSVKGRFTISRDNAKNTVYLQMNSLKPEVTAVYYCAAKSYWGQGTQVTVSS | high polyreactivity
26 | QVQLVESGGGLVQAGGSLRLSCAASGFTFHNNVMGWYRQAPGKERELVATISKSGGSTYYADYVKGRFTISRDNAKNTVYLQMKSLKPEDTAVYYCARRYRDYGRYGYWGQGTQVTVSS | high polyreactivity
27 | QVQLVESGGGLVQAGGSLRLSCAASGFTFHNYAMGLYRQSPGKEREFVAAITRNTASTYYADSVKGRFTISRDNAKITVYLQLNSLKPEDTAVYYCAATDKKHRNAYDSWGQVTQVTVSS | low polyreactivity
28 | QVQLVESGGGLVQAGGSLRLSCAASGFTFHNYAMGWYRQAPGKEREFVAAITRNTASTYYADSVKGRFTISRDNAKNTVYLQMNSLKPEDTAVYYCAATDKKHRTAYDSWGQGTQVTVSS | low polyreactivity
29 | QVQLVESGGGLVQAGGSLRLSCAASGFTFHPNAMGWYRPAPGKERELVAAISTRGGSTAYADSVKGRFTISRDNAKNTVYLLMNSLKPEDTAVYYCAARTSSTKYYYWGQGTQVTVSS | high polyreactivity
30 | QVQLVESGGGLVQAGGSLRLSCAASGFTFHRYDMVWYRQAPGKERELVAGITRRSGSTFYADSVKGRFTISRDNAKNTVYLQMNSLKPEDTAVYYCAATVPGMHWIYDYWGQGTQVTVSS | high polyreactivity
31 | QVQLVESGGGLVQAGGSLRLSCAASGFTFHSYAMGLYRQAPGKERELVAAISPGATTYYADSVKGRFTISRENANNTVYFKLNSLKPEDTAVYYFAASYQRVRDATVYTIYDYWGQGTQVTVSS | high polyreactivity
32 | QVQLVESGGGLVQAGGSLRLSCAASGFTFHYYAMGWYRQAPGKERELVAAISSSGGNTYYADSVKGRFTISRDNAKNTVYLQMNSLKPEDTEVYYCNAYSFFLGGYDYWGQGTQVTVSS | high polyreactivity
33 | QVQLVESGGGLVQAGGSLRLSCAASGFTFINYAMGWYRQAPGKERELVAAISRRGGSTYYADSVKGRFTISRDNAKNTVYLQMNSLKPEDTAVYYCAARGYSYNYDYWGQGTQVTVSS | high polyreactivity
34 | QVQLVESGGGLVQAGGSLRLSCAASGFTFIPYAMGWYRQAPGKERELVAAISRKGGRTYYADSVKGRFTISRDNAKNTVYLQMNSLKPEDTAVYYCAVSQYRGIYRKYDYWGQGTQVTVSS | high polyreactivity
35 | QVQLVESGGGLVQAGGSLRLSCAASGFTFIQYAMGWYRQAPGKERELVAAISVSGGSTYYADSVKGRFTISRDNAKNTVYLQMNSLKPEDTAVYYCNTVTSGFLSYDYWGQGTQVTVSS | high polyreactivity
36 | QVQLVESGGGLVQAGGSLRLSCAASGFTFIQYAMGWYRQAPGKERELVAAITRSGGRTYYADSVKGRFTISRDNAKNTVFLQMNSLKPEDTAVYYCNADRTRGYQRYDYWGQGTQETVSS | high polyreactivity
37 | QVQLVESGGGLVQAGGSLRLSCAASGFTFISNAMGWYRQAPGKERELVAAISSSGGRTFYADSVKGRFTISRDNAKNTDDLQMNSLKPEDTAVYYCNADRSLLYSRKIEYDYWGQGTQVTVSS | low polyreactivity
38 | QVQLVESGGGLVQAGGSLRLSCAASGFTFITNAMGWYRQAPGKERELVASISIGGSTNYADSVKGRFTISRDNAKNTVYLQMNSLKPEDTAVYYCAARVYRRLFLPGRYGRPLGYWGQGTQVTVTS | high polyreactivity
39 | QVQLVESGGGLVQAGGSLRLSCAASGFTFIYYAMGWYRQAPGKERELVAAINRGGNTYYADSVKGRFTISRDNAKNTVYLQMNSLKPEDTAVYYCNARSYRRGHYYWGQGTQVTVSS | high polyreactivity
40 | QVQLVESGGGLVQAGGSLRLSCAASGFTFKGYTMGWYRQAPGKERELVAGISRRGGSTYYADSVKGRFTISRDNAKNTVYLQMNSLKPEDTAVYYCAADSQLTKFYYWGQGTQVTVSS | high polyreactivity
41 | QVQLVESGGGLVQAGGSLRLSCAASGFTFKKNAMGWYRQAPGTERELVAAISRSGGITYYADSVKGRFTISRDNAKNTVYLQMNSLKPEDTAVYYCATQTYRTPGYYYWGEGTQVTVSS | high polyreactivity
42 | QVQLVESGGGLVQAGGSLRLSCAASGFTFKRYAMGWYRQAPGKERELVAVISSGGSTYYADSVKGRFTISRDNAKNCVYLQMNRLKPEDTAVYYCNAYIGGSSWHTALDYWGQGTQVTVSS | high polyreactivity
43 | QVQLVESGGGLVQAGGSLRLSCAASGFTFKRYAMGWYRQAPGKESELVAVISSGGSTYYADSVKGRFTISRDNAKNTVYLQMNSLKPEDTAVYYCNAYIGGSSWHTALDYWGQGTQVTVSS | high polyreactivity
